No end group written: not given here. *: point of attachment. Decanoyl = CCCCCCCCCC(=O)*
Key:
GST-Bcl-2 protein = target: T1, GST-Bcl-2 protein (UniProt P10415 1-205, limits assumed); experiment: fluorescence polarization competition; 30 nM Flu-SEQ ID NO:30, 0.5 µM GST-Bcl-2, conjugate at 0.005-0.32 µM, 30 minutes at 37° C.
T1 construct: not shown: GST tag

CD4 = CD4 (UniProt P01730 26-396, limits assumed); experiment: fluorescence polarization, FIG. 2: E
[1] = target: T2, SH3 domain of the Bcr-Abl oncoprotein (UniProt P00519 61-121); experiment: fluorescence polarization, FIG. 2: D
T2 construct: domain: SH3 domain; also called Bcr-Abl SH3
T2 sequence (P00519 61-121 limits assumed): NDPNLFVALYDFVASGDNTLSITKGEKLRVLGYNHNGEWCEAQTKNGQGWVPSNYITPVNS

Bax = Bax (UniProt Q07812 1-171, limits assumed); experiment: fluorescence polarization, FIG. 2: C
Chain of Bax (Q07812 1-171 limits assumed): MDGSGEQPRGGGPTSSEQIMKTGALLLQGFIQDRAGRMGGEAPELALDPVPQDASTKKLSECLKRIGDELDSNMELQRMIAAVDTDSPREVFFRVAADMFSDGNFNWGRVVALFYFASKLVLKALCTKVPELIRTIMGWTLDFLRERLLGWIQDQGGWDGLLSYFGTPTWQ

T1 sequence (P10415 1-205 limits assumed): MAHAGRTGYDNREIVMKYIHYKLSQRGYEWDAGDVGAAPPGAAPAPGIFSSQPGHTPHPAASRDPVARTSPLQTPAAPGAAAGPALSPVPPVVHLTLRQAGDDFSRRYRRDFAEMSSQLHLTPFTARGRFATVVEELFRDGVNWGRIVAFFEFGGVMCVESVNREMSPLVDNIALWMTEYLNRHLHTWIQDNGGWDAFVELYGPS

B1: decyl-SEQ ID NO:56 (CH3(CH2)8COHN-KNLWAAQRYGRELRRMSDEFEGSFKGL) (peptide)
peptide: Decanoyl-KNLWAAQRYGRELRRMSDEFEGSFKGL
notes: also called decyl-K1285
GST-Bcl-2 protein
  EC50: 130 nM

B2: fluorescein-labeled peptide SEQ ID NO:30 (Flu-SEQ ID NO:30) (peptide)
peptide: GQVGRQLAIIGDDINR
modifications: also: fluorescein label, site of attachment not given here
notes: Synthetic peptide labeled with fluorescein; tracer of the fluorescence polarization assay; also called fluoresceinated BakBH3 peptide; Flu-SQ30
CD4
  binding result: no binding
[1]
  binding result: no binding
Bax
  binding result: no binding

Source: patent publication US6713280 (THOMAS JEFFERSON UNIVERSITY, dated 2004)
